Source: the supplement of paper PMC10567573

B1: DFFB (parent)
chain: KLNCDPSRIYKPQTRLKRKQPVRK
B2: EPB41L3 (parent)
chain: KKFLTLGSKFRYSGRTQAQTRRAS

Variants of: B1
Assay: protein stability index of a GFP-peptide fusion (GPS, HEK-293T) (PSI 1-6); higher = more stable
Details: c terminus: a fixed tail appended
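Note: lentivirally expressed fusions sorted by FACS into six bins by GFP to DsRed ratio, PSI derived from sequencing read proportions per bin multiplied by bin number.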

| Variant | protein stability index |
| --- | --- |
| KLNCDPSRIYKPQTRLKRKQPVHK [R23H] | 3.43 |
| KLNCDPSRIYKPQTRLKRKQPVMK [R23M] | 3.1 |
| KLNCDPSRIYKPQTRLKRKQPVDK [R23D] | 3.83 |
| KLNCDPSRIYKPQTRLKRKQPVKK [R23K] | 3.01 |
| KLNCDPSRIYKPQTRLKRYQPVRK [K19Y] | 2.89 |
| KLNCDPSRIYKPQTRLKRWQPVRK [K19W] | 2.94 |
| KLNCDPSRIYKPQTRLKRDQPVRK [K19D] | 3.53 |
| KLNCDPSRIYKPQTRLKRQQPVRK [K19Q] | 3.34 |
| KLNCDPSRIYKPQTRLKRIQPVRK [K19I] | 3.18 |
| KLDCDPSRIYKPQTRLKRKQPVRK [N3D] | 4.07 |
| KLACDPSRIYKPQTRLKRKQPVRK [N3A] | 4.21 |
| KLKCDPSRIYKPQTRLKRKQPVRK [N3K] | 4.07 |
| KLMCDPSRIYKPQTRLKRKQPVRK [N3M] | 3.19 |
| KLQCDPSRIYKPQTRLKRKQPVRK [N3Q] | 3.53 |
| KLSCDPSRIYKPQTRLKRKQPVRK [N3S] | 4.17 |
| KLNCDPSRIYKPQSRLKRKQPVRK [T14S] | 3.19 |
| KLNCDPSRIYKPQMRLKRKQPVRK [T14M] | 2.64 |
| KLNCDPSRIYKPQIRLKRKQPVRK [T14I] | 3.34 |
| KLNCDPSRIYKPQWRLKRKQPVRK [T14W] | 3.95 |
| KLNCDPSRIYKPQVRLKRKQPVRK [T14V] | 3.51 |
| KLNCDPSRIYKPQQRLKRKQPVRK [T14Q] | 3.31 |
| KLNCDPSRIYKPQKRLKRKQPVRK [T14K] | 3.54 |
| KLNCDPSRIYKPQARLKRKQPVRK [T14A] | 3.56 |
| KLNCDPSRIYAPQTRLKRKQPVRK [K11A] | 4.01 |
| KLNCDPSRIYIPQTRLKRKQPVRK [K11I] | 3.16 |
| KLNCDPSRIYSPQTRLKRKQPVRK [K11S] | 2.89 |
| KLNCDPSRIYDPQTRLKRKQPVRK [K11D] | 3.21 |

| Variant | protein stability index |
| --- | --- |
| KLNCDPSRIYQPQTRLKRKQPVRK [K11Q] | 2.07 |
| KLNCDPSRIYPPQTRLKRKQPVRK [K11P] | 3.15 |
| KLNCDPSRIYRPQTRLKRKQPVRK [K11R] | 3.53 |
| KLNCDPSRIYKPQTRLKRKCPVRK [Q20C] | 3.6 |
| KLNCDPSRIYKPQTRLKRKHPVRK [Q20H] | 3.12 |
| KLNCDPSRIYKPQTRLKRKKPVRK [Q20K] | 3.7 |
| KLNCDPSRIYKPQTRLKRKDPVRK [Q20D] | 3.35 |
| KLNCDPSRIYKPQTRLKRKEPVRK [Q20E] | 3.04 |
| KLNCDPSRIYKPQTRLKRKWPVRK [Q20W] | 3.24 |
| KLNCDPSRIYKPQTRLKRKPPVRK [Q20P] | 2.98 |
| KLNCDPSRIYKPQTRLKRKAPVRK [Q20A] | 3.38 |
| KLNCDPSRIYKPQTRLKRKTPVRK [Q20T] | 4.39 |
| KLNCDPDRIYKPQTRLKRKQPVRK [S7D] | 3.36 |
| KLNCDPIRIYKPQTRLKRKQPVRK [S7I] | 3.41 |
| KLNCDPKRIYKPQTRLKRKQPVRK [S7K] | 3.21 |
| KLNCDPNRIYKPQTRLKRKQPVRK [S7N] | 3.55 |
| KLNCDPFRIYKPQTRLKRKQPVRK [S7F] | 3.34 |
| KLNCDPGRIYKPQTRLKRKQPVRK [S7G] | 3.5 |
| KLNCDSSRIYKPQTRLKRKQPVRK [P6S] | 3.71 |
| KLNCDKSRIYKPQTRLKRKQPVRK [P6K] | 4.03 |
| KLNCDVSRIYKPQTRLKRKQPVRK [P6V] | 2.89 |
| KLNCDFSRIYKPQTRLKRKQPVRK [P6F] | 2.92 |
| KLNCDESRIYKPQTRLKRKQPVRK [P6E] | 4.13 |
| KLNCDTSRIYKPQTRLKRKQPVRK [P6T] | 3.56 |
| KLNCDASRIYKPQTRLKRKQPVRK [P6A] | 3.45 |
| KLNCDISRIYKPQTRLKRKQPVRK [P6I] | 3.11 |
| KLNCDYSRIYKPQTRLKRKQPVRK [P6Y] | 3.5 |

| Variant | protein stability index |
| --- | --- |
| KLNWDPSRIYKPQTRLKRKQPVRK [C4W] | 3.56 |
| KLNLDPSRIYKPQTRLKRKQPVRK [C4L] | 3.24 |
| KLNQDPSRIYKPQTRLKRKQPVRK [C4Q] | 3.78 |
| KLNYDPSRIYKPQTRLKRKQPVRK [C4Y] | 3.51 |
| KLNEDPSRIYKPQTRLKRKQPVRK [C4E] | 3.65 |
| KLNVDPSRIYKPQTRLKRKQPVRK [C4V] | 4.06 |
| KLNMDPSRIYKPQTRLKRKQPVRK [C4M] | 2.35 |
| KLNCDPSRIYKPLTRLKRKQPVRK [Q13L] | 3.09 |
| KLNCDPSRIYKPTTRLKRKQPVRK [Q13T] | 3.66 |
| KLNCDPSRIYKPDTRLKRKQPVRK [Q13D] | 3.83 |
| KLNCDPSRIYKPKTRLKRKQPVRK [Q13K] | 4.12 |
| KLNCDPSRIYKPWTRLKRKQPVRK [Q13W] | 3.6 |
| KLNCDPSRIYKPQTRLKRKQPARK [V22A] | 3.77 |
| KLNCDPSRIYKPQTRLKRKQPSRK [V22S] | 4.09 |
| KLNCDPSRIYKPQTRLKRKQPRRK [V22R] | 2.03 |
| KLNCDPSRIYKPQTRLKRKQPMRK [V22M] | 3.42 |
| KLNCDPSRIYKPQTRLKRKQPLRK [V22L] | 3.62 |
| KLNCDPSRIYKPQTRLKRKQPHRK [V22H] | 3.75 |
| KLNCDPSRIYKPQTRLKRKQPNRK [V22N] | 3.62 |
| MLNCDPSRIYKPQTRLKRKQPVRK [K1M] | 2.65 |
| SLNCDPSRIYKPQTRLKRKQPVRK [K1S] | 2.92 |
| WLNCDPSRIYKPQTRLKRKQPVRK [K1W] | 3.65 |
| DLNCDPSRIYKPQTRLKRKQPVRK [K1D] | 4.23 |
| YLNCDPSRIYKPQTRLKRKQPVRK [K1Y] | 3.24 |
| VLNCDPSRIYKPQTRLKRKQPVRK [K1V] | 3.57 |

Variants of: B2
Assay: as above
Details: c terminus: a fixed tail appended

| Variant | protein stability index |
| --- | --- |
| KKFLTLGSKFRYSGRTQAQTRRAR [S24R] | 3.68 |
| KKFLTLGSKFRYSGRTQAQTRRAW [S24W] | 2.57 |
| KKFLTLGSKFRYSGRTQAQTRRAP [S24P] | 2.57 |
| KKFLTLGSKFRYSGRTQAQTRRAG [S24G] | 2.65 |
| KKFLTLGSKFRYSGRTQAQTRRAM [S24M] | 2.5 |
| KKFLTLGSKFRYSGRTQAQTRRAT [S24T] | 3.46 |
| KKFLTLGSKFRYSGRTQAQTRRAN [S24N] | 2.83 |
| KKFLTLGSKFRYSGRTQAQTRRAF [S24F] | 2.36 |
| KKFLTLGSKFRYSGRTQAQTRRAV [S24V] | 2.15 |
| KKFLTLGSKFRYSGRTQAQTRRAQ [S24Q] | 2.51 |
| KKFLTLGSKFRYSGRTQAQTRRAL [S24L] | 2 |
| KKFLTLGSKFRYSGRTQAQTRRAY [S24Y] | 2.66 |
| KKFLTLGSKFRYSGRTQAQTRRAH [S24H] | 2.25 |
| KKFLTLGSKFRYSGRTQAQTRRAI [S24I] | 2.5 |
| KKFLTLGSKFRYSGRTQAQTRRAK [S24K] | 3.64 |
